Drawing on patent US6951917, this text covers inhibition of GM-CSF secretion by CD4+ TIL 1088 stimulated with 1088-EBV pulsed with autologous melanoma lysate (mAb 23 ug/ml) for one molecule.

The test addresses HLA-DR on 1088-EBV cells (autologous EBV-B cells of patient 1088) (human). Nature of the test: cell-based or functional assay.

B1: monoclonal antibody L243 (anti-HLA-DR; IgG2a) (antibody, from another filing, V domains shown)
VH: QIQLVQSGPELKKPGETVKISCKASGFTFTNYGMNWVKQAPGKGLKWMGWINTYTREPTYADDFKGRFAFSLETSASTAYLQINNLKNEDTAKYFCARDITAVVPTGFDYWGQGTTLTVSS
VL: DIQMTQSPASLSVSVGETVTITCRASENIYSNLAWYRQKQGKSPQLLVFAASNLADGVPSRFSGSGSGTQYSLKINSLQSEDFGDYYCQHFWTTPWAFGGGTNLEIKR
B1 yielded an inhibition of GM-CSF secretion by CD4+ TIL 1088 stimulated with 1088-EBV pulsed with autologous melanoma lysate (mAb 23 ug/ml) of 96%.
